One molecule from publication PMC2938385 (Molecular Biology of the Cell, 2010) can be followed below.

Assay [1] addresses T1, mDia2N (mDia2 residues 150-533) (UniProt Q9Z207 150-533).
T1 sequence (looked up): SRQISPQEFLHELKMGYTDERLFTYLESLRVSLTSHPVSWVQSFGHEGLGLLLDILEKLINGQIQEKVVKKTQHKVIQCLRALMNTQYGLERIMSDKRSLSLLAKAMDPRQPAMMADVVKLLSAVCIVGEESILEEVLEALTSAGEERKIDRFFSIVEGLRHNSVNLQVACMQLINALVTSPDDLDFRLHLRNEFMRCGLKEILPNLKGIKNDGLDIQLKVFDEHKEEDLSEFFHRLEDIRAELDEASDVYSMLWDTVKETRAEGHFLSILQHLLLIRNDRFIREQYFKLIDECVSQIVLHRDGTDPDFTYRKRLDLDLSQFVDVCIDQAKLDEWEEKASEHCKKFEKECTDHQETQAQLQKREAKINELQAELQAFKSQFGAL
Kind of assay: SPR.

In assay [2] the target is T2, mDia3N (mDia3 residues 166-542) (UniProt O70566 166-542).
T2 sequence (looked up): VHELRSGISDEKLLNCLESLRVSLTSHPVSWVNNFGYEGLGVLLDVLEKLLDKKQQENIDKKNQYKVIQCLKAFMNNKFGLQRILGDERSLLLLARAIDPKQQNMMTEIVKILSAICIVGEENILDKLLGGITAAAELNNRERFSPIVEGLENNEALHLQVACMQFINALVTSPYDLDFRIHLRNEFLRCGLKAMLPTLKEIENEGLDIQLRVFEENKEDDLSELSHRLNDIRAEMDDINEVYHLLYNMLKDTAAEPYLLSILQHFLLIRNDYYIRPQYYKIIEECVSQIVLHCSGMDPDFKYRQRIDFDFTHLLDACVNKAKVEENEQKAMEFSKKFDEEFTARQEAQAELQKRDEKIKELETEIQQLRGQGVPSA
Kind of assay: SPR.

B1: GST-anillin (1-91) (domain or fragment, human, UniProt Q9NQW6-2 1-91, looked up)
chain: MDPFTEKLLERTRARRENLQRKMAERPTAAPRSMTHAKRARQPLSEASNQQPLSGGEEKSCTKPSPSKKRCSDNTEVEVSNLENKQPVEST
With B1, the Kd is 236 nM in assay [1] and 1020 nM in assay [2].
